Measurements: paper PMC11612794

Molecular target: 3xFLAG-CENP-T^Δ161–216 (chicken) (UniProt F1NPG5)

GFP-Dsn1 (Mis12C) level at mitotic kinetochores in CENP-C^Δ73 cells after IAA: 15%
Substance: Mis12 complex (Mis12C) containing GFP-Dsn1^WT (from UniProt Q1T769 1-210; A0A8V0ZA15 1-290)
